According to paper PMC8595387 (Scientific Reports, 2021):

B1: humanized A10 antibody A10/16E8 (antibody, V domains shown)
VH: QVQLVQSGGQVKKPGASVKISCKASGYSFTGYTMHWVKQAPGRGLEWIGLINPYNGGTGYNQKFKGKATLTVDKSSSTTYIELLSLTSEDSAVYYCARTSGYLFAYWGQGTLVTVSS
VL: DIVLTQTPDSLAVSLGERATITCKASEDIYNRLAWYQQKAGQPPKLLISGATSLETGVPDRFSGSGSGTDFTLTISSLQAEDVATYYCQQYWSSPLTFGAGTKVNIK
notes: VH of A10/16E8 (CDRs and flanking FR residues of mA10 grafted onto the human framework 16E8); VL of A10/16E8 (CDRs and flanking FR residues of mA10 grafted onto the human framework 16E8); also called A10/16A8 (as printed once in the discussion); source: Expi293F, transiently transfected, purified (protein G)
B2: humanized A10 antibody A10/8A7 (antibody, V domains shown)
VH: QIHLVESGGGVVQTGKSMKISCKASGYSFTGYTMHWVKQTPGKNLEWIGLINPYNGGTGYNQKFKGKATLTVDKSSSTTYIELLSLTSEDSAVYYCARTSGYLFAYWGQGTLVTVSS
VL: ETVMTQSPATLSVSPGERATITCKASEDIYNRLAWYQQKPGQAPRLLISGATSLETGVPSRFSGSGSGTEFTLTISSLQSEDVATYYCQQYWSSPLTFGAGTKLEIK
B3: mouse anti-ADAMTS13 antibody clone A10 (antibody, V domains shown)
VH: EVQLQQSGPELVKPGTSMKISCKASGYSFTGYTMHWVKQSHGKNLEWIGLINPYNGGTGYNQKFKGKATLTVDKSSSTTYIELLSLTSEDSAVYYCARTSGYLFAYWGQGTLVTVSA
VL: DIQMTQSSSSFSVSLGDRVTITCKASEDIYNRLAWYQQKPGNAPRLLISGATSLETGVPSRFSGSGSGKDYIFSITSLQTEDVATYYCQQYWSSPLTFGAGTKLELK
notes: VH of mA10; mouse heavy chain constant region cloned from the mA10 hybridoma; VL of mA10; mouse light chain constant region cloned from the mA10 hybridoma; Whole mouse IgG; mouse IgG2b served as the negative control, which may hint at IgG2b (surmise); also called mA10; mouse A10; source: Expi293F, transiently transfected, purified (protein G)
B4: human-mouse chimeric A10 (antibody, V domains shown)
VH: B3 VH
VL: B3 VL

target: T1, Recombinant Human ADAMTS13 (Full Length) Protein (Homo sapiens, UniProt Q76LX8); assay: cell-based or functional assay; details: not given
T1 sequence (Q76LX8 75-1427): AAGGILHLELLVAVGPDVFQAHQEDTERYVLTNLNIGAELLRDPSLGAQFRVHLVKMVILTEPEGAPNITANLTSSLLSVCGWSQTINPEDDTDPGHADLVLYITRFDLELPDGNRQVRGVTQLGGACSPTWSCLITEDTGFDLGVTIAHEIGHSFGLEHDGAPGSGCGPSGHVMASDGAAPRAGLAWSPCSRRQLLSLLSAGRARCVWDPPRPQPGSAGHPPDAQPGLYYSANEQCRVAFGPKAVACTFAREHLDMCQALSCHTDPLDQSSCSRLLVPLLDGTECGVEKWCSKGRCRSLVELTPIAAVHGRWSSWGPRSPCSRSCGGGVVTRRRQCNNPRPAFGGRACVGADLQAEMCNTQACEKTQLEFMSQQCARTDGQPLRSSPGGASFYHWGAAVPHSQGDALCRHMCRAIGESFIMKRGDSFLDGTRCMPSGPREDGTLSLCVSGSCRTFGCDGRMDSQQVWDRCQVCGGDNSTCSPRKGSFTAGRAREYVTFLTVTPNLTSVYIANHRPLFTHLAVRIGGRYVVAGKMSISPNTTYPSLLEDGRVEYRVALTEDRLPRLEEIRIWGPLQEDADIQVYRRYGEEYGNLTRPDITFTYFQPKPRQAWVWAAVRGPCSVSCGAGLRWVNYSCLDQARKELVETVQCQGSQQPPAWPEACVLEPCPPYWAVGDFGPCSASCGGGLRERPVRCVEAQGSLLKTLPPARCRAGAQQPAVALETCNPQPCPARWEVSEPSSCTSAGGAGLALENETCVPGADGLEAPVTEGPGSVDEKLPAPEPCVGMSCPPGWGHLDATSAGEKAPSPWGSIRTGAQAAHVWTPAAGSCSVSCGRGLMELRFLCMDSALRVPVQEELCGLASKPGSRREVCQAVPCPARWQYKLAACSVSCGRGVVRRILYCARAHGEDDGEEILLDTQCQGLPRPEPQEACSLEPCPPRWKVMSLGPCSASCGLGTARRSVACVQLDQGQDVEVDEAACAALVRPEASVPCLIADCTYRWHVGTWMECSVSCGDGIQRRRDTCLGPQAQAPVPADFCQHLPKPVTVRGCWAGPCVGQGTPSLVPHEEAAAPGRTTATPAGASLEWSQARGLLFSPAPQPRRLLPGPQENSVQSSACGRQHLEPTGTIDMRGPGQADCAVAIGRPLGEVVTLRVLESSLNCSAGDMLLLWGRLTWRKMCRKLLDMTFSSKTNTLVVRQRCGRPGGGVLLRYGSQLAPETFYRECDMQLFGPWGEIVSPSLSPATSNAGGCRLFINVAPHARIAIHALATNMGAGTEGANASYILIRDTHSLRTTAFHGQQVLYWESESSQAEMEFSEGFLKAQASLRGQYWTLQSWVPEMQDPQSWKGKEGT

Row | IC50 of inhibition of plasma ADAMTS13 activity on VWF cleavage (chromogenic ELISA, normal pooled plasma, antibody 25 to 0.20 ug/mL) [µg/mL] | Binder
1 | 0.9 | B1
2 | 7.3 | B2
3 | 2.28 | B3
4 | 2.3 | B4

target: T1, Recombinant Human ADAMTS13 (Full …); assay: SPR; Biacore T200; antibodies captured at about 1,000 RU on anti-human or anti-mouse IgG (Fc) on a CM5 chip; ADAMTS13 injected at 80 nM to 0.625 nM in PBS with 0.05% Tween 20; 25 C; 30 uL/min; contact 240 s, dissociation 900 s; 1:1 binding model; details: both partners purified

Row | Kd [nM] | koff [s⁻¹] | kon [M⁻¹ s⁻¹] | Binder
5 | 5.07 | 6.3e-05 | 12400 | B1
6 | 20.8 | 0.000193 | 9270 | B2
7 | 5.99 | 0.000362 | 60400 | B3
8 | 2.8 | 2.03e-05 | 7270 | B4
